Assay results: article PMC9039736, “Identifying novel SMYD3 interactors on the trail of cancer hallmarks” (Computational and Structural Biotechnology Journal, 2022)

B1: HIS-SMYD3-N-term(1–235) (domain or fragment, human, UniProt Q9H7B4 1-235, looked up)
chain: MEPLKVEKFATAKRGNGLRAVTPLRPGELLFRSDPLAYTVCKGSRGVVCDRCLLGKEKLMRCSQCRVAKYCSAKCQKKAWPDHKRECKCLKSCKPRYPPDSVRLLGRVVFKLMDGAPSESEKLYSFYDLESNINKLTEDKKEGLRQLVMTFQHFMREEIQDASQLPPAFDLFEAFAKVICNSFTICNAEMQEVGVGLYPSISLLNHSCDPNCSIVFNGPHLLLRAVRDIEVGEEL
notes: SMYD3, human, residues 1-235, comprises the SET domain; source: recombinant human protein
B2: HIS-SMYD3-C-term(236–428) (domain or fragment, human, UniProt Q9H7B4 236-428, looked up)
chain: TICYLDMLMTSEERRKQLRDQYCFECDCFRCQTQDKDADMLTGDEQVWKEVQESLKKIEELKAHWKWEQVLAMCQAIISSNSERLPDINIYQLKVLDCAMDACINLGLLEEALFYGTRTMEPYRIFFPGSHPVRGVQVMKVGKLQLHQGMFPQAMKNLRLAFDIMRVTHGREHSLIEDLILLLEECDANIRAS
notes: SMYD3, human, residues 236-428, comprises the CT domain; source: recombinant human protein
B3: HIS-SMYD3-FL (natural protein, human, UniProt Q9H7B4 1-428, looked up)
chain: MEPLKVEKFATAKRGNGLRAVTPLRPGELLFRSDPLAYTVCKGSRGVVCDRCLLGKEKLMRCSQCRVAKYCSAKCQKKAWPDHKRECKCLKSCKPRYPPDSVRLLGRVVFKLMDGAPSESEKLYSFYDLESNINKLTEDKKEGLRQLVMTFQHFMREEIQDASQLPPAFDLFEAFAKVICNSFTICNAEMQEVGVGLYPSISLLNHSCDPNCSIVFNGPHLLLRAVRDIEVGEELTICYLDMLMTSEERRKQLRDQYCFECDCFRCQTQDKDADMLTGDEQVWKEVQESLKKIEELKAHWKWEQVLAMCQAIISSNSERLPDINIYQLKVLDCAMDACINLGLLEEALFYGTRTMEPYRIFFPGSHPVRGVQVMKVGKLQLHQGMFPQAMKNLRLAFDIMRVTHGREHSLIEDLILLLEECDANIRAS
notes: SMYD3, human, full length (constructs count to residue 428); also called HIS-SMYD3-FL (full length); source: recombinant human protein

molecular target: T1, GST-BRCA2(1338–1781) (human, UniProt P51587 1338-1781); assay: pull-down; 200 ng HIS-SMYD3 construct with 500 ng GST-BRCA2(1338-1781), 1 h at 4 °C; precipitated by Dynabeads HIS-Tag Isolation and Pulldown; washed in buffer A (20 mM Tris-HCl pH 8, 150 mM KCl, 5 mM MgCl2, 0.2 mM EDTA, 10% glycerol, 0.1% NP-40, 1 mM DTT); immunoblot anti-GST and anti-HIS; conditions: both partners purified
T1 construct: one of nine GST fusion proteins spanning the entire coding region of BRCA2; source: recombinant GST fusion protein
T1 sequence (P51587 1338-1781): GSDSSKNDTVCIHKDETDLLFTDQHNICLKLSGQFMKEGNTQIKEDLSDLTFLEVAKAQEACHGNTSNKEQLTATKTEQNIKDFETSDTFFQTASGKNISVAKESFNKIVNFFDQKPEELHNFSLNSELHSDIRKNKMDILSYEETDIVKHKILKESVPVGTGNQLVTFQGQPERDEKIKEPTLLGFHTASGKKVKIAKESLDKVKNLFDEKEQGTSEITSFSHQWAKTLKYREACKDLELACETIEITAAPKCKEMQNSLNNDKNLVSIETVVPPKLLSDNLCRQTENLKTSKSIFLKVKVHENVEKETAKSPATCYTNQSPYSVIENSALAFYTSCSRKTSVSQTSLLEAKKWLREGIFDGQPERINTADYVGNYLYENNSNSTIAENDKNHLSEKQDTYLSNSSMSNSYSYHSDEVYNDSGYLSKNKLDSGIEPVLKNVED

Binder | binding result
B1 | binds
B2 | binds
B3 | binds
